B1: OR4K15 (parent)
chain: GUUAACGGUCAUAGGCCAUGGAAACUAGGAGCACCAUUUCGCUGCCAGUGAAGAAAUGAACAAAGAAAAUCUGGGCCAGGCAGGCAUCAAAAGAAAUAGUCUUGCGCUCAACCAGAAAGUCUGUAAUCAUUUUAAGGGUA

Variants of: B1
Test: self-cleavage, relative activity (ratio to wild type); higher = more cleavage; in vitro, sequencing; the parent is a self-cleaving ribozyme

| Variant | self-cleavage |
| --- | --- |
| GUUAACGGUCAUAGGCCAUGGAAACUAGGAGCACCAUUUCGCUGCCAGUGAAGAAAUGAACAAAGAAAAUCUGGGCCAGGCAGGCAUCAAAAGAAAUAGUCUUGCGCUCAACCGGAAAGUCUGUAAUCAUUAUAAGGGUA [A114G U132A] | 0.7 |
| GUUAACGGUCAUAGGCCAUGGAACCUAGGAGCACCAUUUCGCUGCCAGUGAAGAAAUGAACCAAGAAAAUCUGGGCCAGGCAGGCAUCAAAAGAAAUAGUCUUGCGCUCAACCAGAAAGUCUGUAAUCAUUUUAAGGGUA [A24C A62C] | 2.03 |
| GUUAACGGUCAUAGGCCAUGGAAACUAGGAGCACCAUUUCGCUGCCAGUGAAGAAAUGAACAAAGAAAAUCUGGGCCAGGCGGGCAUCAAAAGAAAUAGUCUUGCGCUCAACCAGAAAGUCUAUAAUCAUUUUAAGGGUA [A82G G123A] | 0.75 |
| GUUAACGGUCAUAGGCCAUGGAAACUAGGAGCACCAUUUCGCUGCCAGUGAAGAAAUGAACAAAGAAAAUCUGGGCCAGGCAGGCAUCAUAAGGAAUAGUCUUGCGCUCAACCAGAAAGUCUGUAAUCAUUUUAAGGGUA [A90U A94G] | 1.48 |
| GUUAACGGUCAUAGGCCAUGGAAACUAGGAGCACCAGUUCGCUGCCAGUGAAGAAAUGAACAAAGAAAAUCUGGGCCAGGCAGGCAUCAAAAGAAAUAGUCUUGCGCUCAACCAGAAAGUCUGUAAUCAUUCUAAGGGUA [U37G U132C] | 0.78 |
| GUUAACGGUCAUAGGCCAUGGAAACUAGGAGCACCAUUUCGCUGCCAGUGAAGAAAUGAACAAAGAAAAUCUGGGCCAGGCAGGCAUCUAAAGAAAUAGUCUUGCGCUCAACCAGAAAGUCUGUAAUCAUUUUAAGGGUG [A89U A140G] | 1.61 |
| GUUAACGGUCAUAGGCCAUGGAAACUAGGAGCACCAUUUCGCUGCCAGUGAAGAAAUGAACAAAGAAAAUCUGGGCCAGGCAGGCAUCAAAAGAAAUAGUCUUGCGCUCAACCAGAAAGUCUGUAAUCUUCUUAAGGGUA [A129U U131C] | 0.96 |
| GUUAACGGUCAUAGGCCAUGGAAACUAGGAGCACCAUUUCGCUGCCAGUGAAGAAAUGAACAAAGAAAAUCUGGGCCAGGCAGGCAUCAAAAGAAAUAGUCUUGCGCUCAACCGGAAAGUCUGGAAUCAUUUUAAGGGUA [A114G U124G] | 0.21 |
| GUUAACGGUCAUAGACCAUGGAAACUAGGAGCACCAUUUCGCUGCCAGUGAAGAAAUGAACAAAGAAAAUCUGGGCCAGGCAGGCAUCAAAAGAAAUAGUCUUGCGCUCAACUAGAAAGUCUGUAAUCAUUUUAAGGGUA [G15A C113U] | 0.03 |
| GUUAACGGUCAUAGGCCAUGGAAACUGGGAGCACCAUUUCGCUGCCAGUGAAGAAAUGAACAAAGAAAAUCUGGGCCAGGCAGGCAUCAAAGGAAAUAGUCUUGCGCUCAACCAGAAAGUCUGUAAUCAUUUUAAGGGUA [A27G A92G] | 1.48 |
| GUUAACGGUCAUAGGCCAUGGAAACUAGGAGCACCAUUUCGCUGCCAGUGAAGAAAUGAACAAAGAAGAUCUGGGCCAGGCAGGCAUCAAAAGAAAUAGUCUUGCGCUCAACCAGAAAGUCUGUAACCAUUUUAAGGGUA [A68G U127C] | 1.05 |
| GUUAACGGUCAUAGGCCAUGGAAACUAGGUGCACCAUUUCGCUGCCAGUGAAGAAAUGAACAAAGAAUAUCUGGGCCAGGCAGGCAUCAAAAGAAAUAGUCUUGCGCUCAACCAGAAAGUCUGUAAUCAUUUUAAGGGUA [A30U A68U] | 1.5 |
| GUUAACGGCCAUAGGCCAUGGAAACUAGGAGCACCAUUUCGCUGCCAGUGAAGAAAUGAACAAAGAAAAUCUGGGCCAGGCAGGCAUCAAAAGAAAUAGUCUCGCGCUCAACCAGAAAGUCUGUAAUCAUUUUAAGGGUA [U9C U103C] | 1.13 |
| GUUAACGGUCAUAGGCCAUGGAAACUAGGAGCACCAUUUCGCUGCCAGUGAAGAAAUGAACAAAGAAAAUCUGGGCCAGGCAGGCAUCAAAAGAAAUAGUCUUGCGCUCUACCGGAAAGUCUGUAAUCAUUUUAAGGGUA [A110U A114G] | 0.49 |
| GUUAACGGUCAUAGGCCAUGGAAACUAGGAGCACCAUUUCGCUGCCAGUGAAGAGAUGAACAAAGAAAUUCUGGGCCAGGCAGGCAUCAAAAGAAAUAGUCUUGCGCUCAACCAGAAAGUCUGUAAUCAUUUUAAGGGUA [A55G A69U] | 0.23 |
| GUUAACGGUCAUAGGCCAUGGAAACUAGGAGCACCACUUCGCUGCCAGUGAAGAAAUGAACAAAGAAAAUCUGGGCCAGGCGGGCAUCAAAAGAAAUAGUCUUGCGCUCAACCAGAAAGUCUGUAAUCAUUUUAAGGGUA [U37C A82G] | 0.69 |
| GUUAACGGUCAUAGGCCACGGAAACUAGGAGCACCAUUUCGCUGCCAGUGAAGAAAUGAACAAAGAAAAUCUGGGCCAGGCAGGCAUCAAAAGAAAUAGUCUUGCGCUCAACCAGAAUGUCUGUAAUCAUUUUAAGGGUA [U19C A118U] | 0.77 |
| GUUAACGGUCAUAGGCCAUGGAAACUAGGAGCACCAUCUCGCUGCCAGUGAAGAAAUGAACAAAGAAAAUCUGGGCCAGGCAGGCAUCAAAAGAAAUGGUCUUGCGCUCAACCAGAAAGUCUGUAAUCAUUUUAAGGGUA [U38C A98G] | 0.96 |
| GUUAACGGUCAUAGGCCAUGGAAACUAGGAGCACCAUUUCGCUGCCAGUGAAGAAAUGAACAAAGAAAAUCUGGGCCAGGCAGGCAUCAAAAGAGAUAGUCUUGCGCUCAACCAGAAAGUCUGUAAUCGUUUUAAGGGUA [A95G A129G] | 2.42 |
| GUUAACGGUCAUAGGCCAUGGAAACUAGGAGCACCACUUCGCUGCCAGUGAAGAAAUGUACAAAGAAAAUCUGGGCCAGGCAGGCAUCAAAAGAAAUAGUCUUGCGCUCAACCAGAAAGUCUGUAAUCAUUUUAAGGGUA [U37C A59U] | 1.91 |
